Reference: publication PMC2742894, “Crystal Structure of the N-Acetylmannosamine Kinase Domain of GNE” (PLoS ONE, 2009)

Molecular target: the molecule itself
Test: SEC; Superdex-200 10/300; GNE kinase domain at 6 mg per mL in 20 mM HEPES pH 7.5, 500 mM NaCl, 5 mM MgCl2, 1 mM TCEP; apparent molecular weight from a calibration curve

B1: N-acetylmannosamine kinase domain of UDP-GlcNAc 2-epimerase/N-acetylmannosamine kinase (GNE), residues 406-720 (domain or fragment, human, UniProt Q9Y223 406-720, looked up)
chain: TLSALAVDLGGTNLRVAIVSMKGEIVKKYTQFNPKTYEERINLILQMCVEAAAEAVKLNCRILGVGISTGGRVNPREGIVLHSTKLIQEWNSVDLRTPLSDTLHLPVWVDNDGNCAALAERKFGQGKGLENFVTLITGTGIGGGIIHQHELIHGSSFCAAELGHLVVSLDGPDCSCGSHGCIEAYASGMALQREAKKLHDEDLLLVEGMSVPKDEAVGALHLIQAAKLGNAKAQSILRTAGTALGLGVVNILHTMNPSLVILSGVLASHYIHIVKDVIRQQALSSVQDVDVVVSDLVDPALLGAASMVLDYTTRR
notes: UDP-GlcNAc 2-epimerase/N-acetylmannosamine kinase (GNE), human, kinase domain, residues 406-720; cDNA codon optimized for E. coli and synthesized; Cloned into pET28-MHL (gi:134105571); For crystallization 1:100 chymotrypsin (w/w) and 5 mM ADP were added to the protein stock, so the crystallized chain may be trimmed; residues 475-498 are not seen in the electron density; A …
  stoichiometry N: 2
